Drawing on patent US20250304662A1 (published 2025), this text covers Kd, koff and EC50 for seven molecules.

Read-outs that look alike come from different tables or passages of the source.

In test [1] the target is T1, FimGnteH (E. coli, UniProt P08190 24-37).
T1 sequence (P08190 whole entry, looked up): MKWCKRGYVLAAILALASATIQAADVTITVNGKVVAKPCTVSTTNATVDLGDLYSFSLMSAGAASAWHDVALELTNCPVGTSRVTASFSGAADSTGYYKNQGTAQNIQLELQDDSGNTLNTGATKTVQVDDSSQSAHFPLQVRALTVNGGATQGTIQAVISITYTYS
Briefly: BLI.

In test [2] the target is T2, FimGNTEH (E. coli, UniProt P08190 24-37).
T2 sequence (P08190 whole entry, looked up): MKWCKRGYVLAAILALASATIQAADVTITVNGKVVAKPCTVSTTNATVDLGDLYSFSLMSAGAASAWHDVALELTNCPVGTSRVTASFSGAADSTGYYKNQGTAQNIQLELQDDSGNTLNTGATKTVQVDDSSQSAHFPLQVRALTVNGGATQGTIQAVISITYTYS
Briefly: BLI.

The target in test [3] is T3, E. coli FimH lectin domain truncate (UT189) (E. coli (UT189)).
T3 chain: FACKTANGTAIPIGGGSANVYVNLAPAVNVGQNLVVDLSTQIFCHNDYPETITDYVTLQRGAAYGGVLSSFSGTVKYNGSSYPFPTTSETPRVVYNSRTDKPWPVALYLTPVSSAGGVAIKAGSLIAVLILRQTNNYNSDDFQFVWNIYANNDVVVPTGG
In words: BLI.

Test [4] has as its target T3, E. coli FimH lectin domain truncate …. Briefly: BLI.
A further test addresses Ec1 H9. Briefly: BLI.
In a further test the target is Kp1 1A02. In words: BLI.
In another test the target is Kp1 1C01. In words: BLI.
The next test concerns the target Kp1 2G02. In words: BLI.
Another test deals with Kp1 2E08. In words: BLI.
The next test deals with Kp1 2H07. In words: BLI.
The target in the next test is Ec1 C12. In words: BLI.
For another test, the target named is Kp1 2E02. Briefly: BLI.
The target in a further test is Kp1 2D07. Briefly: BLI.
The next test has as its target Kp1 1B03. In words: BLI.
In test [5] the target is T3, E. coli FimH lectin domain truncate …. In words: BLI.
The target is the same in test [6]. Briefly: BLI.
In the next test the target is T4, Kp FimHLD.
T4 chain: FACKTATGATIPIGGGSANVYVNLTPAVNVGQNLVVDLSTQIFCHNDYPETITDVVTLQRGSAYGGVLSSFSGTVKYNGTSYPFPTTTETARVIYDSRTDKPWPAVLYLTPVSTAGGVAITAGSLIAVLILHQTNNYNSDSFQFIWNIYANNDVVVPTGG
In words: ELISA.

In a further test the target is T5, Ec FmlHLD.
T5 chain: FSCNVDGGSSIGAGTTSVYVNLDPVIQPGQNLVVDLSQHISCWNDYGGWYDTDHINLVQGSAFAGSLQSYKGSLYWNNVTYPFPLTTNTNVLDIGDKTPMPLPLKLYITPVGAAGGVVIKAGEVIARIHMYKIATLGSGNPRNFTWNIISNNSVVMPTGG
Briefly: ELISA.

Another test has as its target Ec FimHLD. Briefly: ELISA.
The target in test [7] is T3, E. coli FimH lectin domain truncate …. In words: BLI.

B1: Kp2 2C07 (Fab, V domains shown)
VH: EVKLVESGEGLVKPGGSLKLSCAASGFTFSSYAMSWVRQTPEKRLDWVAYISSGGDHIYYADTVKGRFTISRDNARNTLYLQMSSLKSEDTAMYYCTRDTGYYVSRYFDVWGTGTTVTVSS
VL: DIVMTQSQKFMSTSVGDRVSVTCKASQNVVTNVAWYQQKSGQSPKVVIYSASFRSSGVPDRFTGSGSGTDFTLTISNVQSEDLAEYFCHQYNSHPLTFGGGTKLEIKR
Take B1: the Kd with FimGnteH [1] and with FimGNTEH [2] was 9.9 nM in each case.

B2: Kp2 2C07 Fab (Fab, V domains shown)
VH: EVKLVESGEGLVKPGGSLKLSCAASGFTFSSYAMSWVRQTPEKRLDWVAYISSGGDHIYYADTVKGRFTISRDNARNTLYLQMSSLKSEDTAMYYCTRDTGYYVSRYFDVWGTGTTVTVSS
VL: DIVMTQSQKFMSTSVGDRVSVTCKASQNVVTNVAWYQQKSGQSPKVVIYSASFRSSGVPDRFTGSGSGTDFTLTISNVQSEDLAEYFCHQYNSHPLTFGGGTKLEIKR
Regarding B2, the Kd in test [3] and in [4] was 2.8 nM in each case.

B3: FimLD (other)
chain: FACKTANGTAIPIGGGSANVYVNLAPAVNVGQNLVVDLSTQIFCHNDYPETITDYVTLQRGAAYGGVLSSFSGTVKYNGSSYPFPTTSETPRVVYNSRTDKPWPVALYLTPVSSAGGVAIKAGSLIAVLILRQTNNYNSDDFQFVWNIYANNDVVVPTGG
In the case of B3, the Kd with Ec1 H9 was determined as 0.2 nM; with Kp1 1A02, 0.7 nM; with Kp1 1C01 it was 3.4 nM; with Kp1 2E08 it was 1 nM; in the test with Kp1 2H07 it was 1 nM; with Ec1 C12, 2.7 nM. The Kd in the test with Kp1 2E02 was 0.4 nM; with Kp1 2D07, 1.5 nM; with Kp1 1B03, 4.9 nM. Further, the koff with Kp1 2G02 worked out at 1.3e-05 s⁻¹.

B4: Ec1 F7 (Fab, V domains shown)
VH: EVQLQQPGPVLVKPGPSVKISCKASGFTFTDYFIHWVKQSHGKSLEWIGLVSPYNGGTYYNQQFKGKATLTVDTSSSTAYMDLNSLTSEDSAVYYCTRLLRGYWYFDVWGTGTTVTVSS
VL: QIVLTQSPALMAASPGEKVTITCSVSSSIGSSNLHWYQQKSETSPKPWIYGTSNLASGVPVRFSGSGSGTSYSLTISSMEAEDAATYYCQQWSTYPYTFGGGTKLEIKR
For B4, the Kd with FimGnteH [1] and with FimGNTEH [2] was 0.7 nM in each case.

B5: Ec1 F7 Fab (Fab, V domains shown)
VH: EVQLQQPGPVLVKPGPSVKISCKASGFTFTDYFIHWVKQSHGKSLEWIGLVSPYNGGTYYNQQFKGKATLTVDTSSSTAYMDLNSLTSEDSAVYYCTRLLRGYWYFDVWGTGTTVTVSS
VL: QIVLTQSPALMAASPGEKVTITCSVSSSIGSSNLHWYQQKSETSPKPWIYGTSNLASGVPVRFSGSGSGTSYSLTISSMEAEDAATYYCQQWSTYPYTFGGGTKLEIKR
Turning to B5, the koff in [5] and in test [6] was 2.2e-05 s⁻¹ in each case.

B6: Kp1 1A02 (antibody, V domains shown)
VH: EVQLQQSGPVLVKPGPSMKISCKASGFTFTDYYIHWVRQSHGKSLEWIGLVSPYNGGTYYNQKFKGKATLTVDSSSSTAYMELSSLTSEDSAVYYCARLGYYGDWYYFDYWGQGTPLTVSS
VL: QIVLTQSPALMATSPGEKVTITCSVSSSISSSNLNWYQQKSETSPKPWIYGTSNLASGVPVRFSGSGSGTSYSLTISSMEAEDAATYYCQQWSSYPYTFGGGTKLEIKR
As to B6, the figures for the EC50 in the test with Kp FimHLD, in the test with Ec FmlHLD and in the test with Ec FimHLD were 0.0185 µg/mL, 2.1 µg/mL and 0.0144 µg/mL, respectively.

B7: Kp1 2H04 Fab (Fab, V domains shown)
VH: EVQLQQSGAELVKPGASVKLSCKASGYTFTSYWMHWVKQRPGQGLEWIGLIHPNSSSTYYNEKFKTRATLTVDKSSSTAYMQLSSLTSEDSAVYYCARLGYGNSYWYFDVWGTGTTVTVSS
VL: QIVLTQSPALMAASPGEKVTITCSVSSSISSSNLHWYQQKSETSPKPWIYGTSNLASGVPIRFSGSGSGTSYSLTISSLEAEDAATYYCQQWRSYPWTFGGGTKLEIKR
Consider B7, for which the koff in test [5] and in test [7] was 2.1e-05 s⁻¹ each time.
